Where a chain is given by its changes, count along the chain named. Each block holds one binder with its values, some of them ahead of it.
Columns and labels:
Human ADAMTS4 = biological target: T1, Human ADAMTS4 (human, UniProt O75173 213-685, limits assumed); assay: celTRF and Octet QK cross-reactivity
T1 construct: also called aggrecanase-1
T1 sequence: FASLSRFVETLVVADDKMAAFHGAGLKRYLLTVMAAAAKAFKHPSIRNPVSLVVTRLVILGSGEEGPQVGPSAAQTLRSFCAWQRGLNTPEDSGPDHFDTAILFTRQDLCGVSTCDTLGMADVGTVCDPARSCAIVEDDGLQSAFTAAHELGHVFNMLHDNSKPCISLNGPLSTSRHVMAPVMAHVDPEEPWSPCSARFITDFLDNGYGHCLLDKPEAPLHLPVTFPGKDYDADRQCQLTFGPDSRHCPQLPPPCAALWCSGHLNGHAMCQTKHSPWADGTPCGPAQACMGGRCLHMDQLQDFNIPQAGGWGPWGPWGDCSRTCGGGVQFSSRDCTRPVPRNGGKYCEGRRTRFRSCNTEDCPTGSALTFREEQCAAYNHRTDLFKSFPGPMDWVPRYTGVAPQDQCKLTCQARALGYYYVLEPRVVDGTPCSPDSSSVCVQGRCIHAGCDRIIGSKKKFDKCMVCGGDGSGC

Human MMP13 = Human MMP13 (human, UniProt P45452 20-471, limits assumed); assay: celTRF and Octet QK cross-reactivity
Human MMP1 = biological target: T2, Human MMP1 (human, UniProt P03956 20-469, limits assumed); assay: celTRF and Octet QK cross-reactivity
T2 sequence (looked up): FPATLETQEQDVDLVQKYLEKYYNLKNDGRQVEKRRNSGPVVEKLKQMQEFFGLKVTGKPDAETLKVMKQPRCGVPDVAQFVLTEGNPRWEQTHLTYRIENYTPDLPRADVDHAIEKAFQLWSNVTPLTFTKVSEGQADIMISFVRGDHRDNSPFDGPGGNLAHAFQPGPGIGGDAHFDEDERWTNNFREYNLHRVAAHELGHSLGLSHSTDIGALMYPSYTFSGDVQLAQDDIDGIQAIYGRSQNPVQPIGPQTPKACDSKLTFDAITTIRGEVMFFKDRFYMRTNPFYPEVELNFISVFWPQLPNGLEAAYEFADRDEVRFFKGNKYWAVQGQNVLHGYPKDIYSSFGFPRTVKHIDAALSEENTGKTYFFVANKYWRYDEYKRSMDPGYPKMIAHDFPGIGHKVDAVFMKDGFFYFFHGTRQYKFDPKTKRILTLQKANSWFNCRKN

Human ADAMTS1 = biological target: T3, Human ADAMTS1 (human, UniProt Q9UHI8 253-967, limits assumed); assay: celTRF and Octet QK cross-reactivity
T3 sequence (looked up): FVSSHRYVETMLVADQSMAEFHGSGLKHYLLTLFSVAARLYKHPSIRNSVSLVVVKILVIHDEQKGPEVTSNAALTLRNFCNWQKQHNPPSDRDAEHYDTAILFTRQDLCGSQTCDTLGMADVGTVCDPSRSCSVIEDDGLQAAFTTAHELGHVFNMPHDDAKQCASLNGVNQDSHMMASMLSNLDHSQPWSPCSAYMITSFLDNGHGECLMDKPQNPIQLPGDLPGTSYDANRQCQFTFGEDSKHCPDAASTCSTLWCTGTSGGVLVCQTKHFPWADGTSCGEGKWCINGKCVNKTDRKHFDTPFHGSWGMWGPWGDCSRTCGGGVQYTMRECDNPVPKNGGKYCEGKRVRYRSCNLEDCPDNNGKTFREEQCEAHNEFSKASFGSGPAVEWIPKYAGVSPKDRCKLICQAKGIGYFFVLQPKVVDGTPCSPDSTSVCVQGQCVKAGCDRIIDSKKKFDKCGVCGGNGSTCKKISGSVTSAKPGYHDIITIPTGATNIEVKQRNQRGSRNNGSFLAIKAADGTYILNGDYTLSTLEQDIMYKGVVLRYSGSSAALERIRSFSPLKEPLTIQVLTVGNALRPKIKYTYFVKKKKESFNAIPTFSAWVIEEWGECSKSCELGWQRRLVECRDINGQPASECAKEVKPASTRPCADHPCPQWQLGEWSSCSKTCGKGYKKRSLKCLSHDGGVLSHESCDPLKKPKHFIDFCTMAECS

Human ADAMTS13 = biological target: T4, Human ADAMTS13 (human, UniProt Q76LX8 75-685, limits assumed); assay: celTRF and Octet QK cross-reactivity
T4 sequence (looked up): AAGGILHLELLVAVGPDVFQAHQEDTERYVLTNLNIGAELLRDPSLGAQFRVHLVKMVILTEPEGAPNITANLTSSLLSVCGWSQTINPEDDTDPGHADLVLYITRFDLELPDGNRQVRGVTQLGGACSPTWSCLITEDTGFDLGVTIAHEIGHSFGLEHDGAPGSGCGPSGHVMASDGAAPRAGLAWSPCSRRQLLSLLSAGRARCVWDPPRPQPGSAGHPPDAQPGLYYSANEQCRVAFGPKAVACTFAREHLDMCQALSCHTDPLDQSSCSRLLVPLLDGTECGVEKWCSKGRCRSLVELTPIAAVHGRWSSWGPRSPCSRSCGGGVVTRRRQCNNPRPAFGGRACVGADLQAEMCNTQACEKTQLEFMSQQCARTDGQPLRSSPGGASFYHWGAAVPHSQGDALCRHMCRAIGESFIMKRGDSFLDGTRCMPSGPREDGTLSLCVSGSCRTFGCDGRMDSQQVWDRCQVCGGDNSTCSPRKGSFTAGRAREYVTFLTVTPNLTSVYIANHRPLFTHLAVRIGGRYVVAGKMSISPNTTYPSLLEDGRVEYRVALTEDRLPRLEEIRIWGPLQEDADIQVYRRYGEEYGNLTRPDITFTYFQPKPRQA

Human MMP3 = Human MMP3 (human, UniProt P08254 18-477, limits assumed); assay: celTRF and Octet QK cross-reactivity
Human MMP9 = Human MMP9 (human, UniProt P14780 20-707, limits assumed); assay: celTRF and Octet QK cross-reactivity
human ADAMTS5 [1] = biological target: T5, human ADAMTS5 (human, UniProt Q9UNA0 262-622, limits assumed); assay: Octet QK, purified murine mAb
T5 construct: Octet and ELISA used 'recombinant human ADAMTS5'; also called recombinant human ADAMTS5; ADAMTS5 (R&D Systems 2198-AD)
T5 sequence: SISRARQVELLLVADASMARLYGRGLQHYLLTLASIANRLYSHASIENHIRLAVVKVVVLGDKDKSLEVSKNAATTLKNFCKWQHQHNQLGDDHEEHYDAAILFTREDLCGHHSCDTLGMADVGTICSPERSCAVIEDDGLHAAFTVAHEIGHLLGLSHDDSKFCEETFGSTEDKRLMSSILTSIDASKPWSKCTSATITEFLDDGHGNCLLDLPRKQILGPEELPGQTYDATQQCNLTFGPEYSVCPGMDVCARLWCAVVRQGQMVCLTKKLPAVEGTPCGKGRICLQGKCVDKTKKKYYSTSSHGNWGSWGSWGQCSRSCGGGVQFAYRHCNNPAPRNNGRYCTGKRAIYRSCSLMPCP

human ADAMTS5 [2] = biological target: T5, human ADAMTS5; assay: cell-based or functional assay
human ADAMTS5 [3] = biological target: T5, human ADAMTS5; assay: Biacore, mAb down, no avidity
human ADAMTS5 [4] = biological target: T5, human ADAMTS5; assay: Biacore, mAb from culture supernatant captured on anti-human IgG, ADAMTS5 (R&D 2198-AD) at 64 nM, 1:1 fit
Method: Anti-human IgG (Biacore™, BR-1008-39) was immobilized on a CM5 chip by primary amine coupling. This surface was then used to capture the humanized antibodies, ADAMTS5 (R&D Systems 2198-AD) was then passed over the captured antibody at a single concentration of 64 nM, regeneration was carried out using 100 mM phosphoric acid followed by 3M MgCl₂. The binding curves were double referenced with buffer injection (i.e. 0 nM) and the data was fitted to the T100 analysis software using the 1:1 model. The run was carried out at 25° C., using HBS-EP as the running buffer. All antibodies were captured from tissue culture supernatants unless specified.

human ADAMTS5 [5] = biological target: T5, human ADAMTS5; assay: Octet QK, antigen down, incl avidity

Human MMP3, sequence (P08254 18-477 limits assumed): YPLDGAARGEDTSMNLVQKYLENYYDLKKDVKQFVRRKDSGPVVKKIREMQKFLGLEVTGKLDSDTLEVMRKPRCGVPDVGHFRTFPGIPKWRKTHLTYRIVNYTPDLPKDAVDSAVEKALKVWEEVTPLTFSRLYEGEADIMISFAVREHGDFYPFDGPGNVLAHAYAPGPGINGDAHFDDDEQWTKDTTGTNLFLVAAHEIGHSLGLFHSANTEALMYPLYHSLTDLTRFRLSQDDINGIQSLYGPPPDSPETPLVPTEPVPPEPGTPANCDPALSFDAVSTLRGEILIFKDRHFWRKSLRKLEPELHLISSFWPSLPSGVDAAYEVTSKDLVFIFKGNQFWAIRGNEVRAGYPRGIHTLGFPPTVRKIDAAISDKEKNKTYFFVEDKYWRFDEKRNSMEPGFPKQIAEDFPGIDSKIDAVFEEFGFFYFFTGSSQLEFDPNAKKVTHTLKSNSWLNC
Human MMP9, sequence (P14780 20-707 limits assumed): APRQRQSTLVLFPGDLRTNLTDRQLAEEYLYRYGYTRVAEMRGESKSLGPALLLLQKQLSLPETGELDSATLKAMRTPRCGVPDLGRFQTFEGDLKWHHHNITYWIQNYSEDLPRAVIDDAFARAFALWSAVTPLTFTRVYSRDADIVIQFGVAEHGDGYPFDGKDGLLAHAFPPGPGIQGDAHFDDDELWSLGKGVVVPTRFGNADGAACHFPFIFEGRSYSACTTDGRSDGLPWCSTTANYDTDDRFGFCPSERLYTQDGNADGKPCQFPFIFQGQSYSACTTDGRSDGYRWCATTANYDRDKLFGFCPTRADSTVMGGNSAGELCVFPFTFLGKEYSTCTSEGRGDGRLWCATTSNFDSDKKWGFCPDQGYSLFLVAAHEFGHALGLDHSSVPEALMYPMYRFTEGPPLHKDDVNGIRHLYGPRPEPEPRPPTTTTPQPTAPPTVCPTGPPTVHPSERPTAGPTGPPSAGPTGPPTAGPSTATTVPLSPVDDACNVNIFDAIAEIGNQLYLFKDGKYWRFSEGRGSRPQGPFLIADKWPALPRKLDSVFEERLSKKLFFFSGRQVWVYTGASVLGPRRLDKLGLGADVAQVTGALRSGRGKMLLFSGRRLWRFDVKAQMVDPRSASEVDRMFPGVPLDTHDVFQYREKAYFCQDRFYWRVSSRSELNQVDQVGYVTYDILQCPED

binding result (Human ADAMTS4): no binding
binding result (Human MMP13): no binding
binding result (Human MMP1): no binding
binding result (Human ADAMTS1): no binding
binding result (Human ADAMTS13): no binding
binding result (Human MMP3): no binding
binding result (Human MMP9): no binding
Kd (human ADAMTS5 [1]): 0.0862 nM
Aggrecan Substrate Cleavage Neutralization IC50 (human ADAMTS5 [2]): 0.031 nM
B1: 2D3.1D4 (antibody, V domains shown)
VH: EVKLEESGGGLVQPGGSMKLSCAASGITFSDAWMDWVRQSPEKGLEWVADIRNTANNHATFYAESVKGRFTISRDDSKSTVYLQMNTLRPEDTGIYYCTSPFAYWGQGTLVTVSA
VL: DIVMTQSQKFMSTTVGDRVSITCKASQNVGTAVVWFQQKPGQSPKLLIYSASNRYTRVPDRFTGSGSGTDFTLTISNVQSEDLADYFCQQYVNYPFTFGSGTKLEIKR
notes: Murine monoclonal antibody from a hybridoma

binding result (Human ADAMTS4): no binding
binding result (Human MMP13): no binding
binding result (Human MMP1): no binding
binding result (Human ADAMTS1): no binding
binding result (Human ADAMTS13): no binding
binding result (Human MMP3): no binding
binding result (Human MMP9): no binding
Kd (human ADAMTS5 [1]): 0.126 nM
Aggrecan Substrate Cleavage Neutralization IC50 (human ADAMTS5 [2]): 0.05 nM
B2: 5F10.1H6 (antibody, V domains shown)
VH: B1 VH with I27F, D50E, N53H, T54K, N57D, T60I, A63D, T80I, T87S
VL: DIVMTQSQRFMSVTVGDRVSITCKASQSVGTTIVWYQQKPGQSPKLLIYSASTRYTGVPDRFTGGGSGTDFILTINNVQSEDLADYFCQQYSSYPFTFGSGTKLEIKR
notes: as for B1

binding result (Human ADAMTS4): no binding
binding result (Human MMP13): no binding
binding result (Human MMP1): no binding
binding result (Human ADAMTS1): no binding
binding result (Human ADAMTS13): no binding
binding result (Human MMP3): no binding
binding result (Human MMP9): no binding
Kd (human ADAMTS5 [1]): 0.0824 nM
Aggrecan Substrate Cleavage Neutralization IC50 (human ADAMTS5 [2]): 0.769 nM
B3: 3A12.1D7 (antibody, V domains shown)
VH: EVKFEESGGGLVQPGGSMKLSCAASGFIFSDAWMDWVRQSPEKGLEWVAEIRHKANDYAIFYDESVKGRFTISRDDSKSIVYLQMNNLRPEDTGIYYCTSPFAYWGQGTLVTVSA
VL: B2 VL with R9K, T53N, Y55H, G65S, N76S
notes: as for B1

Kd (human ADAMTS5 [3]): 0.869 nM
Kd (human ADAMTS5 [4]): 0.869 nM
koff (human ADAMTS5 [4]): 0.000481 s⁻¹
kon (human ADAMTS5 [4]): 554000 M⁻¹ s⁻¹
Kd (human ADAMTS5 [5]): 0.205 nM
B4: BPC1634 (antibody, human IgG1, kappa, V domains shown)
VH: EVQLVESGGGLVQPGGSLRLSCAASGFTFSDAWMDWVRQAPGKGLEWVAEIRNKANNHARHYAESVKGRFTISRDNAKNSLYLQMNSLRAEDTAVYYCARTYYYGSSYGYCDVWGQGTLVTVSS
VL: DIQMTQSPSSLSASVGDRVTITCRTSENIYSYLAWYQQKPGKAPKLLIYNAKTLAEGVPSRFSGSGSGTDFTLTISSLQPEDFATYYCQHHYGTPWTFGQGTKLEIKR
notes: Humanized, human gamma 1 / kappa; also called 7B4 H0L0; Humanized 7B4.1E11 H0L0

Kd (human ADAMTS5 [4]): 1.16 nM
koff (human ADAMTS5 [4]): 0.0026 s⁻¹
kon (human ADAMTS5 [4]): 2.24e+06 M⁻¹ s⁻¹
B5: BPC1653 (antibody, human IgG1, kappa, V domains shown)
VH: B4 VH with F29S, L81V, A99T
VL: B4 VL with K45Q, I48V
notes: Humanized, human gamma 1 / kappa; also called 7B4 H5L2

Kd (human ADAMTS5 [4]): 1.27 nM
koff (human ADAMTS5 [4]): 0.0013 s⁻¹
kon (human ADAMTS5 [4]): 1.02e+06 M⁻¹ s⁻¹
B6: BPC1649 (antibody, human IgG1, kappa, V domains shown)
VH: B4 VH with A99T
VL: B4 VL with K45Q, I48V
notes: Humanized, human gamma 1 / kappa; also called 7B4 H1L2

Kd (human ADAMTS5 [4]): 1.09 nM
koff (human ADAMTS5 [4]): 0.00343 s⁻¹
kon (human ADAMTS5 [4]): 3.14e+06 M⁻¹ s⁻¹
B7: BPC1650 (antibody, human IgG1, kappa, V domains shown)
VH: B4 VH with F29S
VL: B4 VL with K45Q, I48V
notes: Humanized, human gamma 1 / kappa; also called 7B4 H2L2

Kd (human ADAMTS5 [4]): 1.08 nM
koff (human ADAMTS5 [4]): 0.00212 s⁻¹
kon (human ADAMTS5 [4]): 1.96e+06 M⁻¹ s⁻¹
B8: BPC1652 (antibody, human IgG1, kappa, V domains shown)
VH: B4 VH with F29S, N76D, A99T
VL: B4 VL with K45Q, I48V
notes: Humanized, human gamma 1 / kappa; also called 7B4 H4L2

Kd (human ADAMTS5 [4]): 1.19 nM
koff (human ADAMTS5 [4]): 0.00315 s⁻¹
kon (human ADAMTS5 [4]): 2.65e+06 M⁻¹ s⁻¹
B9: BPC1651 (antibody, human IgG1, kappa, V domains shown)
VH: B4 VH with F29S, A99T
VL: B4 VL with K45Q, I48V
notes: Humanized, human gamma 1 / kappa; also called 7B4 H3L2

Kd (human ADAMTS5 [4]): 1.09 nM
koff (human ADAMTS5 [4]): 0.00114 s⁻¹
kon (human ADAMTS5 [4]): 1.04e+06 M⁻¹ s⁻¹
B10: BPC1654 (antibody, human IgG1, kappa, V domains shown)
VH: B4 VH with F29S, N76D, L81V, A99T
VL: B4 VL with K45Q, I48V
notes: Humanized, human gamma 1 / kappa; also called 7B4 H6L2

Reference: patent US20120095193A1 (published 2012)
